From the supplement of paper PMC10567573

B1: VPS39 (parent)
chain: ITEEKVCMVCKKKIGNSAFARYPN
B2: ZNF277 (parent)
chain: ILREELQKQRLREILEQQQQERND

Variants of: B1
Experiment: protein stability index of a GFP-peptide fusion (GPS, HEK-293T) (PSI 1-6); higher = more stable
Settings: c terminus: a fixed tail appended
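Also: lentivirally expressed fusions sorted by FACS into six bins by GFP to DsRed ratio, PSI derived from sequencing read proportions per bin multiplied by bin number.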

| Variant | protein stability index |
| --- | --- |
| ITEEWVCMVCKKKIGNSAFARYPN [K5W] | 2.28 |
| ITEECVCMVCKKKIGNSAFARYPN [K5C] | 2.04 |
| ITEEKVCMVCKKKIGNQAFARYPN [S17Q] | 3.1 |
| ITEEKVCMVCKKKIGNAAFARYPN [S17A] | 2.19 |
| ITEEKVCMVCKKKIGNRAFARYPN [S17R] | 2.62 |
| ITAEKVCMVCKKKIGNSAFARYPN [E3A] | 1.97 |
| ITLEKVCMVCKKKIGNSAFARYPN [E3L] | 1.91 |
| ITPEKVCMVCKKKIGNSAFARYPN [E3P] | 2.25 |
| ITEEKVCHVCKKKIGNSAFARYPN [M8H] | 2.31 |
| ITEEKVCQVCKKKIGNSAFARYPN [M8Q] | 3.22 |
| ITEEKVCSVCKKKIGNSAFARYPN [M8S] | 3.29 |
| ITEEKVCGVCKKKIGNSAFARYPN [M8G] | 2.64 |
| ITEEKVCAVCKKKIGNSAFARYPN [M8A] | 2.91 |
| ITEEKVCWVCKKKIGNSAFARYPN [M8W] | 1.51 |
| ITEEKVCMVCKHKIGNSAFARYPN [K12H] | 2.28 |
| ITEEKVCMVCKNKIGNSAFARYPN [K12N] | 2.8 |
| ITEEKVCMVCKPKIGNSAFARYPN [K12P] | 2.25 |
| ITEEKVCMVCKEKIGNSAFARYPN [K12E] | 2.46 |
| ITEEKVCMVCKKKIGNSAFARMPN [Y22M] | 2.9 |
| ITEEKVCMVCKKKIGNSAFARFPN [Y22F] | 2.31 |
| ITEEKVCMVCKKKIGNSAFARRPN [Y22R] | 2.35 |
| ITEEKVCMVCKKKIGNSAFARGPN [Y22G] | 2.64 |

| Variant | protein stability index |
| --- | --- |
| ITEEKVCMDCKKKIGNSAFARYPN [V9D] | 2.71 |
| ITEEKVCMHCKKKIGNSAFARYPN [V9H] | 2.87 |
| ITEEKVCMFCKKKIGNSAFARYPN [V9F] | 2.27 |
| ITEEKVCMECKKKIGNSAFARYPN [V9E] | 3.53 |
| ITEEKVCMICKKKIGNSAFARYPN [V9I] | 2.06 |
| ITEEKVCMVCKKSIGNSAFARYPN [K13S] | 2.36 |
| ITEEKVCMVCKKAIGNSAFARYPN [K13A] | 1.7 |
| ITEEKVCMVCKKFIGNSAFARYPN [K13F] | 2.28 |
| ITEEKVCMVCKKCIGNSAFARYPN [K13C] | 2.01 |
| ILEEKVCMVCKKKIGNSAFARYPN [T2L] | 3.59 |
| IMEEKVCMVCKKKIGNSAFARYPN [T2M] | 2.02 |
| ITEEKVCMVCKKKIGNSAFAFYPN [R21F] | 2.39 |
| ITEEKVCMVCKKKIGNSAFAVYPN [R21V] | 2.59 |
| ITEEKVCMVCKKKIGNSAFAGYPN [R21G] | 2.83 |
| ITEEKVCMVCKKKIGNSAFANYPN [R21N] | 2.71 |
| ITEEKVCMVCKKKIGNSAFAKYPN [R21K] | 2.77 |
| ITEEKVCMVKKKKIGNSAFARYPN [C10K] | 2.77 |
| ITEEKVGMVCKKKIGNSAFARYPN [C7G] | 2.46 |
| ITEEKVKMVCKKKIGNSAFARYPN [C7K] | 3.1 |
| ITEEKVVMVCKKKIGNSAFARYPN [C7V] | 3.31 |
| ITEEKVDMVCKKKIGNSAFARYPN [C7D] | 4.19 |
| ITEEKVNMVCKKKIGNSAFARYPN [C7N] | 4.1 |

| Variant | protein stability index |
| --- | --- |
| CTEEKVCMVCKKKIGNSAFARYPN [I1C] | 2.24 |
| DTEEKVCMVCKKKIGNSAFARYPN [I1D] | 3.39 |
| LTEEKVCMVCKKKIGNSAFARYPN [I1L] | 2.5 |
| ITEEKHCMVCKKKIGNSAFARYPN [V6H] | 2.65 |
| ITEEKYCMVCKKKIGNSAFARYPN [V6Y] | 2.52 |
| ITEEKVCMVCKKKIGNSAFARYPA [N24A] | 2.11 |
| ITEEKVCMVCKKKIGNSAFARYPW [N24W] | 1.93 |
| ITEEKVCMVCKKKIGNSAFARYPG [N24G] | 1.77 |
| ITEEKVCMVCKKKIGNSAFARYPL [N24L] | 2.27 |
| ITEEKVCMVCKKKIGNSAFARYPQ [N24Q] | 2.52 |
| ITEEKVCMVCKKKIGNSAFARYPV [N24V] | 1.65 |
| ITEEKVCMVCRKKIGNSAFARYPN [K11R] | 1.98 |
| ITEEKVCMVCLKKIGNSAFARYPN [K11L] | 1.42 |
| ITEEKVCMVCVKKIGNSAFARYPN [K11V] | 2.23 |
| ITEEKVCMVCIKKIGNSAFARYPN [K11I] | 1.85 |
| ITEAKVCMVCKKKIGNSAFARYPN [E4A] | 1.47 |
| ITEIKVCMVCKKKIGNSAFARYPN [E4I] | 2.06 |
| ITEKKVCMVCKKKIGNSAFARYPN [E4K] | 1.86 |
| ITELKVCMVCKKKIGNSAFARYPN [E4L] | 2.09 |
| ITEEKVCMVCKKKIGNSAFARYWN [P23W] | 1.75 |
| ITEEKVCMVCKKKINNSAFARYPN [G15N] | 2.37 |
| ITEEKVCMVCKKKIVNSAFARYPN [G15V] | 2.86 |

| Variant | protein stability index |
| --- | --- |
| ITEEKVCMVCKKKILNSAFARYPN [G15L] | 2.31 |
| ITEEKVCMVCKKKICNSAFARYPN [G15C] | 2.98 |
| ITEEKVCMVCKKKIINSAFARYPN [G15I] | 2.8 |
| ITEEKVCMVCKKKIKNSAFARYPN [G15K] | 2.55 |
| ITEEKVCMVCKKKIGNSKFARYPN [A18K] | 2.4 |
| ITEEKVCMVCKKKIGNSEFARYPN [A18E] | 3.2 |
| ITEEKVCMVCKKKIGTSAFARYPN [N16T] | 2.77 |
| ITEEKVCMVCKKKIGLSAFARYPN [N16L] | 2.05 |
| ITEEKVCMVCKKKIGYSAFARYPN [N16Y] | 2.1 |
| ITEEKVCMVCKKKIGNSAFERYPN [A20E] | 2.11 |
| ITEEKVCMVCKKKIGNSAFYRYPN [A20Y] | 2.31 |
| ITEEKVCMVCKKKIGNSAFLRYPN [A20L] | 2.09 |
| ITEEKVCMVCKKKIGNSAFHRYPN [A20H] | 2.38 |
| ITEEKVCMVCKKKIGNSAGARYPN [F19G] | 3.29 |
| ITEEKVCMVCKKKIGNSANARYPN [F19N] | 2.69 |
| ITEEKVCMVCKKKIGNSAQARYPN [F19Q] | 3.58 |
| ITEEKVCMVCKKKIGNSAKARYPN [F19K] | 3.55 |
| ITEEKVCMVCKKKCGNSAFARYPN [I14C] | 2.5 |
| ITEEKVCMVCKKKYGNSAFARYPN [I14Y] | 2.66 |
| ITEEKVCMVCKKKPGNSAFARYPN [I14P] | 2.64 |

Variants of: B2
Experiment: as above
Settings: c terminus: a fixed tail appended

| Variant | protein stability index |
| --- | --- |
| IVREELQKQRLREILEQQQQERND [L2V] | 4.73 |
| IHREELQKQRLREILEQQQQERND [L2H] | 5.24 |
| IMREELQKQRLREILEQQQQERND [L2M] | 4.21 |
| IDREELQKQRLREILEQQQQERND [L2D] | 5.63 |
| IPREELQKQRLREILEQQQQERND [L2P] | 4.86 |
| IYREELQKQRLREILEQQQQERND [L2Y] | 4.81 |
| IIREELQKQRLREILEQQQQERND [L2I] | 4.41 |
| ISREELQKQRLREILEQQQQERND [L2S] | 5.33 |
